Test results taken from the Human Domainome abundance scans (Beltran et al. 2025).
± gives the uncertainty stated by the source.

B1: Ras GTPase-activating protein 1, residues 281 to 341; numbered along this chain, P20936 (parent)
chain: RRRVRAILPYTKVPDTDEISFLKGDMFIVHNELEDGWMWVTNLRTDEQGLIVEDLVEEVGR

Variants of: B1
Experiment: abundance fitness (aPCA) (normalised: wild type 0, dead -1); higher = more abundant; growth selection in yeast, the domain comes from the species named
Details: Homo sapiens
In the case of RRRVRAILPYTKVPDTDEISFLKGDMFIVHNELEDGWMWVTNLRTDEQGSIVEDLVEEVGR, the abundance fitness is reported as -0.07 ± 0.024. In the case of RRRVRAILPYTKVPDTDEISFLKGDMFIVRNELEDGWMWVTNLRTDEQGLIVEDLVEEVGR, the abundance fitness is reported as -0.255 ± 0.029. With RRRVRAILPYTKVPDTDEISFLKGDMFIVHNELKDGWMWVTNLRTDEQGLIVEDLVEEVGR the abundance fitness was -0.026 ± 0.064. RRRVRAILPYLKVPDTDEISFLKGDMFIVHNELEDGWMWVTNLRTDEQGLIVEDLVEEVGR showed an abundance fitness of -0.169 ± 0.028. Variant RRRVRAILPYTKVPDTDEISFLKGDMFIVHNELEDGWMWVTNLRTDEQTLIVEDLVEEVGR has an abundance fitness of -0.791 ± 0.06. Work on RRRVRAILPYTKVPDTDEISFLKGDMFIVHNELEDGWMWVTNLRTDEQGLIVCDLVEEVGR yielded an abundance fitness of -0.079 ± 0.026. Work on RRRVRAGLPYTKVPDTDEISFLKGDMFIVHNELEDGWMWVTNLRTDEQGLIVEDLVEEVGR yielded an abundance fitness of -0.735 ± 0.044. For RRRVRAILPYTKVPDTDEISFLKGDMFIVHNELEDGWMWVTNLRTDEPGLIVEDLVEEVGR, the abundance fitness was -0.503 ± 0.04. RRRVRAILPYTKVPDTDEISFLKGDMFIVHNELEDGWMWVTNLRTDEQGLIVEDLVEEVGG gave an abundance fitness of 0.034 ± 0.048. In the case of RRRVRAILPYTKVPDTDEISFLKGDMFIVHNELEDGWMWVTNLRTDEQGLIVEDLVEEVGV, the abundance fitness is reported as 0.079 ± 0.039. RRMVRAILPYTKVPDTDEISFLKGDMFIVHNELEDGWMWVTNLRTDEQGLIVEDLVEEVGR showed an abundance fitness of -0.158 ± 0.057. For RRFVRAILPYTKVPDTDEISFLKGDMFIVHNELEDGWMWVTNLRTDEQGLIVEDLVEEVGR, the abundance fitness was 0.004 ± 0.032. Variant RRRVRAILPYTKVPDTDEISFLKGDMFIVHNELEVGWMWVTNLRTDEQGLIVEDLVEEVGR has an abundance fitness of -0.392 ± 0.036. For RRRVRAILPYTKVPDTDEISFLKGDMFIVHNELERGWMWVTNLRTDEQGLIVEDLVEEVGR, the abundance fitness was -0.035 ± 0.03. Work on RRRVRAILPYTKVPDTDEISFLKGDMFIVHNELEDGWMWVTNMRTDEQGLIVEDLVEEVGR yielded an abundance fitness of 0.005 ± 0.057. In the case of RRRVRAILPYTKVPDTDEINFLKGDMFIVHNELEDGWMWVTNLRTDEQGLIVEDLVEEVGR, the abundance fitness is reported as -0.14 ± 0.03. RRRVRAILPYTKVPDTDEISFLKTDMFIVHNELEDGWMWVTNLRTDEQGLIVEDLVEEVGR gave an abundance fitness of -0.881 ± 0.066. For RRRVRAILPYTKVPDTDEISFLVGDMFIVHNELEDGWMWVTNLRTDEQGLIVEDLVEEVGR, the abundance fitness was -0.13 ± 0.028. RRRVRAILPYTKEPDTDEISFLKGDMFIVHNELEDGWMWVTNLRTDEQGLIVEDLVEEVGR showed an abundance fitness of 0.019 ± 0.047. Work on RRRVRAILPYTKHPDTDEISFLKGDMFIVHNELEDGWMWVTNLRTDEQGLIVEDLVEEVGR yielded an abundance fitness of 0.012 ± 0.03. RRRVRAILPYTKVPDTDEISPLKGDMFIVHNELEDGWMWVTNLRTDEQGLIVEDLVEEVGR showed an abundance fitness of -0.939 ± 0.05. Variant RRRVHAILPYTKVPDTDEISFLKGDMFIVHNELEDGWMWVTNLRTDEQGLIVEDLVEEVGR has an abundance fitness of -0.398 ± 0.036. In the case of VRRVRAILPYTKVPDTDEISFLKGDMFIVHNELEDGWMWVTNLRTDEQGLIVEDLVEEVGR, the abundance fitness is reported as -0.016 ± 0.038. RRRVRAILPYTTVPDTDEISFLKGDMFIVHNELEDGWMWVTNLRTDEQGLIVEDLVEEVGR showed an abundance fitness of -0.7 ± 0.048. In the case of RRRVRAILPYTKVPDTDEISFLKGDMFIVHNELEDGWMWVTNLRTDEQGLIVEDGVEEVGR, the abundance fitness is reported as -0.348 ± 0.028. Variant RRRVRAILPYTKVPDTDEISFLKGDMFIVHNELEDGWMWVTNLRTDEQGLIVEDYVEEVGR has an abundance fitness of 0.034 ± 0.03. With RRRVRAILPYTKVPDTDEISFMKGDMFIVHNELEDGWMWVTNLRTDEQGLIVEDLVEEVGR the abundance fitness was -0.054 ± 0.062. RRRVRAILPYTKVPDTDEISFHKGDMFIVHNELEDGWMWVTNLRTDEQGLIVEDLVEEVGR showed an abundance fitness of -0.013 ± 0.041. Work on RRRVRAILPYTKVPDTDEISFLKGDMFIVHNELEDGWMWVTNLPTDEQGLIVEDLVEEVGR yielded an abundance fitness of -0.9 ± 0.1. RRRVRAILPYTKVPDTDEISFLKGDMFIVHNELEDGWMWVTNLDTDEQGLIVEDLVEEVGR gave an abundance fitness of -0.885 ± 0.087. With RRRVRAILPYTKVPDTDEISFLKGDMFIVHNELEDGWMWVTNLRPDEQGLIVEDLVEEVGR the abundance fitness was -0.988 ± 0.084. With RRRVRAILPYTKVPFTDEISFLKGDMFIVHNELEDGWMWVTNLRTDEQGLIVEDLVEEVGR the abundance fitness was -0.241 ± 0.027. RRRVRAILPYTKVPDTDEISFLKGDMVIVHNELEDGWMWVTNLRTDEQGLIVEDLVEEVGR gave an abundance fitness of -0.901 ± 0.045. In the case of RRRVRAILPYTKVPDTDEISFLKGDMQIVHNELEDGWMWVTNLRTDEQGLIVEDLVEEVGR, the abundance fitness is reported as -0.815 ± 0.12. RRRVRAILPYTKVPDTDEISFLKGDMSIVHNELEDGWMWVTNLRTDEQGLIVEDLVEEVGR gave an abundance fitness of -0.798 ± 0.036. Work on RRRVRAILPYTKVPDTDEISFLKGDMFIVHNELEDGWHWVTNLRTDEQGLIVEDLVEEVGR yielded an abundance fitness of -0.865 ± 0.061. Variant RRRVRAILPYTKVPDTDEISFLKGDMFIVHNELEDGWMWVTNLRTDEQGLIKEDLVEEVGR has an abundance fitness of 0 ± 0.046. In the case of RRRVRAILPYTKVPDTDEISFLKGDMFIVHNELEDGWMWVTNLRTDEQGLIDEDLVEEVGR, the abundance fitness is reported as -0.121 ± 0.031. Variant RRRVRAILPYTKVPDTDEISFLKGDMFIVHNELEDGWMWVTNLRTDEQGLIVEDLVHEVGR has an abundance fitness of -0.224 ± 0.039. In the case of RRRVRAILPYTKVPDTDEISFLKGDMFIVHNELEDGWMWVTWLRTDEQGLIVEDLVEEVGR, the abundance fitness is reported as -0.929 ± 0.11. Variant RRRVRAILPYTKVPDTDEISFLKGDMFIVHNEPEDGWMWVTNLRTDEQGLIVEDLVEEVGR has an abundance fitness of -0.07 ± 0.039. For RRRVRAILPYTKVPDTDEISFLKGDMFIVHNELEDGRMWVTNLRTDEQGLIVEDLVEEVGR, the abundance fitness was 0.088 ± 0.021. With RRRVRAILPYTKVPDTDEISFLKGDMFQVHNELEDGWMWVTNLRTDEQGLIVEDLVEEVGR the abundance fitness was -0.047 ± 0.042. In the case of RRRVRAILPYTKVPDTDEISFLKGDMFIVHNELEDGWMWVTNLRTVEQGLIVEDLVEEVGR, the abundance fitness is reported as -0.044 ± 0.024.
